These results are taken from patent publication US20070136826A1 (Biogen, published 2007).

Experiment [1] addresses Mouse CD20 (endogenous, on mouse B cell lines and splenic B cells) (mouse) (UniProt P19437). Nature of the experiment: flow cytometry on A20 cells; isotype control, PE-anti-mouse IgG2b. (In general: In flow cytometry, cells or beads pass a laser one at a time.)
For experiment [2] the target is unchanged. Briefly: flow cytometry on NS-1 cells; isotype control, PE-anti-mouse IgG2b.
The target in experiment [3] is Mouse CD20 with C-terminal Idectin peptide tag, on transfected CHO cells (mouse) (UniProt P19437). Briefly: flow cytometry on CHO-CD20 cells; isotype control, PE-anti-mouse IgG2b.
Experiment [4] has as its target Mouse CD20 (endogenous, on mouse B cell lines and splenic B cells) (mouse) (UniProt P19437). Briefly: flow cytometry on WEHI 279 cells; isotype control, PE-anti-mouse IgG2b.
The target is the same in experiment [5]. Nature of the experiment: flow cytometry on BCL 1/3B3 cells; isotype control, PE-anti-mouse IgG2b.
Experiment [6] deals with Mouse CD20 with C-terminal V5 peptide tag, on transfected 300.18 cells (mouse) (UniProt P19437). Briefly: flow cytometry on 300.18-CD20 cells; isotype control, PE-anti-mouse IgG2b.
The target in experiment [7] is Mouse CD20 (endogenous, on mouse B cell lines and splenic B cells) (mouse) (UniProt P19437). Nature of the experiment: flow cytometry on wild type C57Bl/6 splenocytes; isotype control, PE-anti-mouse IgG2b.
Experiment [8] deals with T1, Mouse CD20 with C-terminal Idectin peptide tag, on transfected CHO cells (mouse, UniProt P19437 1-291).
T1 construct: also called CHO-CD20; CHO cells transfected with mouse CD20; not shown: Idectin peptide tag at the 3' end of the gene (N5K-CtIdectin-B7.1-Ig vector)
T1 sequence: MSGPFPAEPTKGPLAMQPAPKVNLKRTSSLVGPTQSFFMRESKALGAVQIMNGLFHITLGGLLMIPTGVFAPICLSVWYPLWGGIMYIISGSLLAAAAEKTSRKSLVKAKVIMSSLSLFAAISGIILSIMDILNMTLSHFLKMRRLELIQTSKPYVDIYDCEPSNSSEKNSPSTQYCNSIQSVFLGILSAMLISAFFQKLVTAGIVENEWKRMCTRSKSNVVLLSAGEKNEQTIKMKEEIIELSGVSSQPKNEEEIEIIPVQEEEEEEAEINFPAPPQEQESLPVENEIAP
Nature of the experiment: flow cytometry on transfected CHO cells. The protocol: (§1) Cell Staining and Flow Cytometry Analyses. All staining procedures were done in round bottom 96-well plates (Corning 3799) in FACS buffer (Dulbecco's PBS supplemented with 2% FBS, 0.05% sodium azide, 10% normal goat serum (heat inactivated), and 2.4G2 (1 ug/ml). None of the monoclonal secondary antibodies used recognized rat IgG2b (the 2.4G2 antibody). Cells (1×10⁵ to 1×10⁶) were incubated with primary or secondary antibodies for 45 minutes each on ice, washed between incubations, and resuspended at 1×10⁶ cells/ml in FACS buffer for analyses. Fluorescence was measured on a FACSArray or FACSCalibur and analyzed with BD FACSArray System Software or Cell Quest Pro software.

Experiment [9] deals with T2, Mouse CD20 with C-terminal V5 peptide tag, on transfected 300.18 cells (mouse, UniProt P19437 1-291).
T2 sequence: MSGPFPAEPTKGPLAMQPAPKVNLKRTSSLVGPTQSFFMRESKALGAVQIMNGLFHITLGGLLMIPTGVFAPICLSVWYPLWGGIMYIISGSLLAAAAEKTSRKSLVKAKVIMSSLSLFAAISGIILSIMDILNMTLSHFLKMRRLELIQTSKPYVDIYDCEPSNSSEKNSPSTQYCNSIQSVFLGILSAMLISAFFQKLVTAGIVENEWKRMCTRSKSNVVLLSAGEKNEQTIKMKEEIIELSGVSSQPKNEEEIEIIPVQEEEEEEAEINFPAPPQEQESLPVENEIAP
Nature of the experiment: flow cytometry on transfected 300.18 cells. The protocol:
as §1

The target of experiment [10] is T3, Mouse CD20 (endogenous, on mouse B cell lines and splenic B cells) (mouse, UniProt P19437 1-291).
T3 construct: also called mCD20
T3 sequence: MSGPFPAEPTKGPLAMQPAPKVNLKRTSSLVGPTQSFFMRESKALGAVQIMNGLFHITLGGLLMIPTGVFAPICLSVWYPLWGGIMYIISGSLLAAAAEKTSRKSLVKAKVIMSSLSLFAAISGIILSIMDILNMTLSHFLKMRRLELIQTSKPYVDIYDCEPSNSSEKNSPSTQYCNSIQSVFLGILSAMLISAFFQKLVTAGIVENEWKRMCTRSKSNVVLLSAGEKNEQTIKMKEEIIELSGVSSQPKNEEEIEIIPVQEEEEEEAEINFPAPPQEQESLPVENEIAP
Nature of the experiment: summary of Example 1; flow cytometry on cells. The protocol: as §1

The target of the next experiment is T4, Rat CD20 (rat, UniProt D4A4Y3 1-287).
T4 construct: whole, on cells; also called CD20 on rat splenic B cells and rat B cell lines
T4 sequence: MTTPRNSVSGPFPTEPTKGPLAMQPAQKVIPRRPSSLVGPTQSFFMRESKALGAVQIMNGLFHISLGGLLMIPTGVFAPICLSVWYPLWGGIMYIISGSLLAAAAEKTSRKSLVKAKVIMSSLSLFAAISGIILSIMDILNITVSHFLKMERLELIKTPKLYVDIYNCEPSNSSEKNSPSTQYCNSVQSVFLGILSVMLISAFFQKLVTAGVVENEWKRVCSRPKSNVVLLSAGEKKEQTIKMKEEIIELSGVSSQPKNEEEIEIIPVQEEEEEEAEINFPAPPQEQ
Briefly: flow cytometry staining of rat splenic B cells and two rat B cell lines.

For the molecule IgG2b isotype control antibody, the geometric mean of fluorescence intensity is 3.4 in experiment [1]; 3.8 in experiment [2]; 3.6 in experiment [3]; 5.9 in experiment [4]; 4.2 in [5]; 4.1 in experiment [6]. Further, the geometric mean of fluorescence intensity in experiment [7] stood at 3.8.

B1: 18B12 IgG1 mouse anti-mouse CD20 monoclonal antibody (antibody, V domains shown)
VH: QVQLQQPGAELVRPGTSVKLSCKASGYTFTSYWMHWIKQRPGQGLEWIGVIDPSDNYTKYNQKFKGKATLTVDTSSSTAYMQLSSLTSEDSAVYFCAREGYYGSSPWFAYWGQGTLVTVSS
VL: QIVMSQSPAILSASPGEKVTMTCRARSSVSYIHWYQQKPGSSPKPWIYATSNLASGVPGRFSGSGSGTSYSLTITRVEAEDAATYYCQQWSSKPPTFGGGTKLEIKR
modifications: N-terminal pyroglutamic acid (N-terminal glutamine blocked)
notes: also called 18B12 antibody; 18B12-A1C3-H3
As to B1, the binding result in experiment [8] was “binds”; in [9], “binds”; in [10], “binds”; with Rat CD20 it was “no binding”.
